T1: human AXL expressed on the cell surface of tumor cell lines (human, UniProt P30530 26-894)
T1 construct: whole, on cells; also called cell surface-expressed AXL; cell-based AXL
T1 sequence (looked up): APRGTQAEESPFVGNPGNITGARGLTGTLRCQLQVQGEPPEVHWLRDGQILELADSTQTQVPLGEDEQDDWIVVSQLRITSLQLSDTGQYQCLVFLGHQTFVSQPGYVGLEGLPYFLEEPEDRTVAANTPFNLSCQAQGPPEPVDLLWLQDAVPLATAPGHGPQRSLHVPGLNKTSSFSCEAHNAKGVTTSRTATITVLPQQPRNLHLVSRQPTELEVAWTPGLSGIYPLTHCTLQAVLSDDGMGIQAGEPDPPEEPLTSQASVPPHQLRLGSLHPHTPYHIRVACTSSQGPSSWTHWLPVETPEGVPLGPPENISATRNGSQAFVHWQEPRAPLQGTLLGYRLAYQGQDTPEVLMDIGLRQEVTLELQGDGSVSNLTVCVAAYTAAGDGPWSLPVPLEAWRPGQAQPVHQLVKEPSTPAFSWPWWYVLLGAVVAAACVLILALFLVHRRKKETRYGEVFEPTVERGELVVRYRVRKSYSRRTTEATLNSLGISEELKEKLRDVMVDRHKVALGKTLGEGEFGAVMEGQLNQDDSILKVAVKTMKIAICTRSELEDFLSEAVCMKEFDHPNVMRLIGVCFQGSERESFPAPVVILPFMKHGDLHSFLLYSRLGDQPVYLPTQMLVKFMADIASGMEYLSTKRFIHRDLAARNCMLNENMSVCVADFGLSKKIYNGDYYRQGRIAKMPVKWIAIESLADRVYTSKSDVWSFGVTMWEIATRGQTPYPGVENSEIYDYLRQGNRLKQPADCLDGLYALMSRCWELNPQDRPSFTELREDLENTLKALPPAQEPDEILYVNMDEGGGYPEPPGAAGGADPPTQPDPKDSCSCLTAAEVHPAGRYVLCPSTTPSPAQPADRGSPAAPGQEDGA

T2: AXL fragment # 4 (AXL amino acids 219-335, FN III-1)
T2 chain: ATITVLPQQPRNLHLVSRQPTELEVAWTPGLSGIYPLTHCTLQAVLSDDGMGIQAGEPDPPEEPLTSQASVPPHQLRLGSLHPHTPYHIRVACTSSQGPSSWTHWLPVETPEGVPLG

T3: AXL fragment # 2 (AXL amino acids 321-429, FN III-2)
T3 chain: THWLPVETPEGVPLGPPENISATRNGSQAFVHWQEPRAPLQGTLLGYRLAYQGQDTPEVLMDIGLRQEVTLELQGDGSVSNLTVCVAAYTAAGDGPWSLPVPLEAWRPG

T4: AXL fragment # 8 (AXL amino acids 219-450, FN III-1+FN III-2+)
T4 construct: not shown: Yeast display carrier and tags (Aga2p, HA, MYC and any linkers)
T4 chain: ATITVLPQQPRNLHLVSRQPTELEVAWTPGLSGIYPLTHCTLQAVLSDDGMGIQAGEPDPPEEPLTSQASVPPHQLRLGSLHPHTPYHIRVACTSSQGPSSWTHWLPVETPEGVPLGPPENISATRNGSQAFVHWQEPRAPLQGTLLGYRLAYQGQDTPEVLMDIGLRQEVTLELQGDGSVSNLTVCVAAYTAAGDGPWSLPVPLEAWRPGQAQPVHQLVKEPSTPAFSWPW

T5: AXL fragment # 7 (AXL amino acids 135-335, IgL2+FN III-1)
T5 chain: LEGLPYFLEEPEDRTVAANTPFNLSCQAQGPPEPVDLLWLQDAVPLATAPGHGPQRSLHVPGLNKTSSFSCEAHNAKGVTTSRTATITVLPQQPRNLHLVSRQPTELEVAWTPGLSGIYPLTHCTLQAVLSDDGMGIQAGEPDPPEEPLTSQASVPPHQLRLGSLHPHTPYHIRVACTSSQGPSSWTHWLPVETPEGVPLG

T6: AXL fragment # 5 (AXL amino acids 321-450, FN III-2+)
T6 chain: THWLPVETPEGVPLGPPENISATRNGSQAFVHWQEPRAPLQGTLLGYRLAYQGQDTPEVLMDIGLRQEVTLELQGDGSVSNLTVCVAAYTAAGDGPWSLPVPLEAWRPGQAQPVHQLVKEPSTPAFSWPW

T7: AXL fragment # 1 (AXL amino acids 135-226, IgL2)
T7 chain: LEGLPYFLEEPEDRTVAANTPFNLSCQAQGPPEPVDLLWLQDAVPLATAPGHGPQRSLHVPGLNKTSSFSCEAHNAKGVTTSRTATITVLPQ

B1: F111-5E9 (antibody, V domains shown)
VH: QIQLVQSGPELKKPGETVKISCKASGYTFTKYGMNWVKQAPGKGLKWMGWINTYTGEPTYADDFKGRFAFSLETSASTAYLQINNLTTEDMVTYFCAKGGYYSNPIYPMDYWGQGTSVTVSS
VL: DIQMTQTTSSLSASLGDRVTISCRASQDINNYLNWYQQKPDGTVKLLIYYISRLHSGVPSRFSGSGSGTDYSLTISNLELEDVATYFCQQGNTLPFTFGSGTKLEIK
notes: also called F111-5E9-2; mAb 5E9
B2: F111-3C8 (antibody, V domains shown)
VH: QVQLQQPGAELGKPGTSVKLSCKASGYTFTSYWMHWVKRVPGQGLEWIGNINPNSTSADYNEKFKRKATLTVDKSSSTAYMQLSTLTSEDSAVYYCTRPLMGPYWYFDVWGTGTTVTVSS
VL: QIVLTQSPAIMSASPGEKVTISCSASSSVSYMYWYQQKPGSSPKPWIYRTSNLASGVPARFSGSGSGTSYSLTISSMEAEDAATYYCQQYHNYPPTFGGGTKLEIK
notes: also called F111-3C8-2
B3: F107-10G1 (antibody, V domains shown)
VH: EVNLVESGGGVVKPGASLKLSCEASGFTFSNYGMSWVRQTSDKRLEWVASISGGGGRTYYLDNVKGRFIISRENAKNTLYLQMSSLKSEDTALFYCARGARASYFAMDYWGQGSSVTVSS
VL: VIVMTQSHKFMSTSVGDRVSITCKASQDVTTAVAWYQQKPGQSPKLLIYWASTRHTGVPDRFTGSGSGTDYSLTISNVQTEDLAFYYCQQHFTTPLTFGAGTKLELK
notes: also called F107-10G1-3
B4: F107-8D12 (antibody, V domains shown)
VH: QVQLQQPGAELVKPGASVQLSCKASGYTFISFWINWVKQRPGQGLEWMGNIFPGSSSTNYNEKFKSKATLTVDKSSSTAYMQLSSLTSEDSAVYFCARDYYGGSPDYWGQGTTLTVSS
VL: DIVMSQSPSSLAVSAGERVTMSCKSSQSLLNTRTRKNYLAWYQQKPGQSPKLLIYWASTRESGVPDRFTGSGSGTDFTLTISSVQAEDLAVYYCKQSYNLWTFGGGTKLEIK
notes: also called F107-8D12-2; mAb 8D12
B5: F107-7H5 (antibody, V domains shown)
VH: QVQLQQPGAELVKPGASVKLSCKASGYTFTSYWINWVKQRPGQGLEWIGNIYPDSSSTNYNEKFKSKATLTVDKSSTTAYIQFSSLTSEDSAVYYCTRDTYGGSPDYWGQGTTLTVSS
VL: B4 VL with R18K, T32S, N37I, E61Q
notes: also called F107-7H5-2; mAb 7H5

Positions count from the first letter of the chain named.

One assay has as its target T1, human AXL expressed on the cell surface …. The assay is described as follows: flow cytometry on H292 cells, apparent cell binding constant. The method, then:
Detection of antibody binding to surface AXL by flow cytometry. Prior to analysis, cells were plated such that they were not more than 80% confluent on the day of analysis. Cells were washed in PBS and harvested by the addition of cell dissociation buffer (Sigma). A cell suspension containing 2.5×10⁵ cells (in 500 μl corresponding cell culture media) was incubated with various concentrations (0.01-10 nM) of anti-AXL antibodies for 2 h at 4° C. (to prevent internalization). Following one wash with cell culture media, primary antibody was incubated with 2 μg DYLIGHT™ 488 conjugated AffiniPure goat anti-mouse IgG Alexa 488 secondary antibody (Jackson ImmunoResearch) in 100 μl of media for 1 h at 4° C. Prior to analysis, cell pellets were re-suspended in 300-500 μl media and filtered through a 50 μm nylon mesh filter to remove cell aggregates. Flow cytometry analyses were performed on 10,000 viable cells gated on forward scattering, side scattering parameters and propidium iodide dye exclusion using a BD LSRII flow Cytometer (Becton-Dickinson Biosciences, CA, USA) and a standard filter set using BD FACSDiva™ acquisition software, according to manufacturer's instructions.
Specific detection of antibody binding was calculated as the mean fluorescent intensity of binding to each primary antibody after background level subtraction of the mean fluorescent intensity of binding in the absence of primary antibody (but containing detection antibody). Binding parameters Bmax, (maximum fluorescence signal at receptor saturation), and KD (apparent cell binding constant) were then determined using a One site—Specific binding with Hill slope model in GraphPad Prism v 6.0.
Consider B1, for which the Kd came out at 0.177 nM.
Regarding B2, the Kd is 1.23 nM.
Turning to B3, the Kd amounted to 0.101 nM.
As to B4, the Kd is 0.088 nM.
Still for that read-out and setting: the figure for B5 is 0.104 nM.

The target in a further assay is T2, AXL fragment # 4 (AXL amino acids …). The assay is described as follows: yeast surface display of hAXL fragments, whole yeast cell ELISA, signal normalised to anti-MYC. An excerpt: (§1) Epitope mapping. […] The YSD vector (pPNL6) was from The Pacific Northwest National Laboratory, USA.
As for B1, the binding result is “no binding”.
On the same count and under the same terms, the entry for B2 is “no binding”; for B3 it is “no binding”; for B4 it is “no binding”.
Still for that read-out and setting: for B5 the value was “no binding”.

The target in another assay is T3, AXL fragment # 2 (AXL amino acids …). The assay is described as above.
Source text: as §1
For B1, the binding result is recorded as “no binding”.
As to B2, the binding result is recorded as “no binding”.
The same measure, in the same setting: for B3 the value was “no binding”; for B4, “no binding”; for B5, “no binding”.

A further assay deals with T4, AXL fragment # 8 (AXL amino acids …). Described as above.
Source text: as §1
For the molecule B1, the binding result is listed as “no binding”.
Same read-out and setting: for B2 the value was “no binding”.
With B3, the binding result is given as “no binding”.
With B4, the binding result was “no binding”.
On the same count and under the same terms, for B5 the value was “no binding”.

A further assay concerns the target T5, AXL fragment # 7 (AXL amino acids …). Described as above.
Source text: as §1
Consider B3, for which the binding result is “no binding”.
On the same count and under the same terms, the entry for B4 is “no binding”; for B5 it is “no binding”.

The target of another assay is T6, AXL fragment # 5 (AXL amino acids …). Described as above.
Source text: as §1
As for B1, the binding result is recorded as “no binding”.
The same measure, in the same setting: the entry for B2 is “no binding”.
For B3, the binding result is given as “no binding”.
On the same count and under the same terms, for B4 the value was “no binding”; for B5, “no binding”.

The next assay addresses T7, AXL fragment # 1 (AXL amino acids …). Described as above.
Source text: as §1
Turning to B3, the binding result was “no binding”.
With B4, the binding result is “no binding”.
The same measure, in the same setting: for B5 the value was “no binding”.

These data come from patent publication US20240076389A1 (NATIONAL RESEARCH COUNCIL OF CANADA, published 2024).
